This note sets out measurements from US20250136696A1 (HARBOUR BIOMED SHANGHAI, published 2025).

The target of assay [1] is T1, human B7-H7 on the cell surface (human, UniProt Q9UM44 23-414).
T1 construct: whole, on cells; also called hB7-H7; hu B7-H7
T1 sequence (looked up): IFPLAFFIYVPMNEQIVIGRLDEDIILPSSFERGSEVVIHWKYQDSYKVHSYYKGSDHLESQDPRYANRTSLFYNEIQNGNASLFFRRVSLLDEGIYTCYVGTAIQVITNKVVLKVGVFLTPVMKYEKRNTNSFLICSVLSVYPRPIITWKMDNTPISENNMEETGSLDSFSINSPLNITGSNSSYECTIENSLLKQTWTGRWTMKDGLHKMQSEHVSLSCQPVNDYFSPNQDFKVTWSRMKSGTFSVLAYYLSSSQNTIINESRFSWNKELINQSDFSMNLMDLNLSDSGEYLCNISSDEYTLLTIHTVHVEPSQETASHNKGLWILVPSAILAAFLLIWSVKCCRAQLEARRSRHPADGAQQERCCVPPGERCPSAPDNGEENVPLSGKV
Put plainly: flow cytometry, LS180 cells. As to the method: This example was intended to study the in vitro activity of H2L2 monoclonal antibodies against human B7-H7 in binding to human/cynomolgus monkey B7-H7. Since homologous molecules of B7-H7 were not present in mice, the detection was not performed. […] The cells were adjusted to a cell density of 1×10⁶ cells/mL, respectively. The cells were seeded in a 96-well V-bottom plate (Corning, #3894) at 100 μL/well, and the antibody to be tested at 2× final concentration with 3-fold concentration gradient dilution was then added at 100 μL/well. The cells were incubated at 4° C. for 2 hours in the dark. After the incubation, the cells were rinsed twice by adding pre-chilled PBS containing 2% BSA at 100 μl/well, and centrifuged at 500 g at 4° C. for 5 minutes, and the supernatant was discarded. […] The cells were washed twice by adding pre-chilled PBS containing 2% BSA at 100 μL/well, and centrifuged at 500 g at 4° C. for 5 minutes, and the supernatant was discarded. Finally, the cells were resuspended in pre-chilled PBS containing 2% BSA at 200 μL/well, and the fluorescence signal values were read using an ACEA Novocyte3000 flow cytometer.
(A flow cytometer gives signals particle by particle.)

Assay [2] has as its target T2, B7-H3/CD276 protein, human, recombinant (ECD, Fc tag) (Sino Biological, 11188-H02H) (human, UniProt Q5ZPR3 29-466).
T2 construct: extracellular domain; Bought
T2 sequence (looked up): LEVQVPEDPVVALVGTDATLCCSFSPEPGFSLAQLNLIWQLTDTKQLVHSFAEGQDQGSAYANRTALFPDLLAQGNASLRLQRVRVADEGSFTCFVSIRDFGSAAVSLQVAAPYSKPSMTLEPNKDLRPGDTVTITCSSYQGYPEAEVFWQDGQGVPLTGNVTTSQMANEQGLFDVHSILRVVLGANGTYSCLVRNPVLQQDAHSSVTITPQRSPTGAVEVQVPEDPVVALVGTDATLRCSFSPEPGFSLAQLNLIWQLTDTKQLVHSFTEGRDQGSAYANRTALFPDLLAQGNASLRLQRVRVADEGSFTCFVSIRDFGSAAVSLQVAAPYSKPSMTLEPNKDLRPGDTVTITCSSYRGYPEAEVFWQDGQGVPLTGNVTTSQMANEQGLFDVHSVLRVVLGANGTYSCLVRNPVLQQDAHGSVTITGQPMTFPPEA
As to the kind of experiment: ELISA on coated B7 family protein. On the procedure: (§1) B7 family proteins (see Table 7 for details) were respectively diluted to […] with PBS, added into a 96-well plate (Corning, #9018) at 100 μl/well, and incubated at 4° C. overnight. After the liquid was discarded, the plate was washed 3 times with a PBST buffer (pH 7.4, containing 0.05% tween-20), 250 μl of blocking solution containing 2% BSA was added, and the plate was incubated for 1 hour at 37° C. The blocking solution was discarded, the plate was washed 3 times with PBST buffer (pH 7.4, containing 0.05% Tween-20), the antigen-binding protein to be tested was diluted to 2 concentrations of 10 nM and 1 nM, 100 μl of the diluted antigen-binding protein was added to each well, and the plate was incubated for 1 hour at 37° C., with the isotype antibody as the control. After the plate was washed 3 times with PBST buffer (pH 7.4, containing 0.05% Tween-20), goat anti-human HRP secondary antibody (Invitrogen, #A18805) diluted 5000 times was added, and the plate was incubated at 37° C. for 1 hour in the dark. After the plate was washed 3 times with PBST buffer (pH 7.4, containing 0.05% tween-20), TMB (Biopanda, #TMB-S-003) was added at 100 μl/well, and the plate was placed at room temperature for about 30 minutes in the dark; and a stop solution (BBI life sciences, #E661006-0200) was added to each well at 50 μl/well to stop the reaction, and the absorbance at 450 nm (OD450) was determined in a microplate reader (PerkinElemer, #Enspire).
A general note: An ELISA detects its analyte on a solid surface through an enzyme-linked reagent.

The target in assay [3] is T3, Human PD-L1/B7-H1 protein, His tag (Acro, PD1-H5229) (human, UniProt Q9NZQ7 19-238).
T3 construct: Bought
T3 sequence (Q9NZQ7 19-238 limits assumed): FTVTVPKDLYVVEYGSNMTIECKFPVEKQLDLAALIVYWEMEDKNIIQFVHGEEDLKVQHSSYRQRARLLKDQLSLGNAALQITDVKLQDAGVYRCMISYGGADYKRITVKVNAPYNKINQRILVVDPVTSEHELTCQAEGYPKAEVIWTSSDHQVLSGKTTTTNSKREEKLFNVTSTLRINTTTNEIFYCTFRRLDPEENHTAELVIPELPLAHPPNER
Put plainly: ELISA on coated B7 family protein. On the procedure: as §1

The target of assay [4] is T1, human B7-H7 on the cell surface. As to the kind of experiment: flow cytometry on HEK-293/hB7-H7 cells after 0-14 days in 90% human serum at 37 C. As to the method:
The cells were adjusted to a cell density of 1×10⁶ cells/mL, respectively. The cells were seeded in a 96-well V-bottom plate (Corning, #3894) at 100 μL/well, and the antibody to be tested at 2× final concentration with 3-fold concentration gradient dilution was then added at 100 μL/well. The cells were incubated at 4° C. for 2 hours in the dark. After the incubation, the cells were rinsed twice by adding pre-chilled PBS containing 2% BSA at 100 μL/well, and centrifuged at 500 g at 4° C. for 5 minutes, and the supernatant was discarded. […] The cells were washed twice by adding pre-chilled PBS containing 2% BSA at 100 μL/well, and centrifuged at 500 g at 4° C. for 5 minutes, and the supernatant was discarded. Finally, the cells were resuspended in pre-chilled PBS containing 2% BSA at 200 μL/well, and the fluorescence signal values were read using an ACEA Novocyte3000 flow cytometer.

B1: PR003264 (antibody, human IgG1, kappa)
heavy: not shown
light: DIQLTQSPSFLSASVGDRVTITCRASQGISSYFAWYQQKPGKAPKLLIYAASTLQSGVPSRFSGSGSGTEFTLTISSLQPEDFATYYCQHLNRYPWTFGQGTKVEIKRTVAAPSVFIFPPSDEQLKSGTASVVCLLNNFYPREAKVQWKVDNALQSGNSQESVTEQDSKDSTYSLSSTLTLSKADYEKHKVYACEVTHQGLSSPVTKSFNRGEC
notes: Human IgG1; also called 77G10D3
Turning to B1, in assay [1], the EC50 (commonly the concentration that produces a half-maximal response) came out at 2.2 nM and the “Maximum MFI” value amounted to 21800 MFI.

B2: PR004263 (antibody, human IgG1, kappa, L234A L235A)
heavy: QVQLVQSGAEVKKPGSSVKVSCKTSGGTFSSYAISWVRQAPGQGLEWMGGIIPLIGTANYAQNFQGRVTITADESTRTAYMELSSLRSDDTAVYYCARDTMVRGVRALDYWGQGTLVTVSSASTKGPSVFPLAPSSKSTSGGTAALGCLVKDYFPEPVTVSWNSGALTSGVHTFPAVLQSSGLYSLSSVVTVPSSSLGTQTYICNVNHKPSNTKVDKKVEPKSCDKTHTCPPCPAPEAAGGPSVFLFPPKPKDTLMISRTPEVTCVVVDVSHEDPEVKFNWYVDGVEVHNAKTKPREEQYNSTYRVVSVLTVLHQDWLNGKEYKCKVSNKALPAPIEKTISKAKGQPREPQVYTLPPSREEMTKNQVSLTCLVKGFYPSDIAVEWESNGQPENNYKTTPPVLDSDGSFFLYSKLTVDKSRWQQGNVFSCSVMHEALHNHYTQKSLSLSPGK
light: B1 light
notes: Variant of PR003264; Human IgG1 with LALA mutation in Fc
Consider B2, for which, in assay [1], the response was half-maximal at 3.08 nM (EC50) and the “Maximum MFI” value turned out to be 24000 MFI. The binding result in assay [2] is “no binding (tested: 10 nM)”. Besides, the binding result in assay [3] is “no binding (tested: 10 nM)”. Besides, in assay [4], the half-maximal effective concentration (EC50 (read off the curve)) (commonly the concentration needed to bring the measured effect to its halfway point) was roughly 1 nM.

B3: PR004260 (antibody, human IgG1, kappa, L234A L235A)
heavy: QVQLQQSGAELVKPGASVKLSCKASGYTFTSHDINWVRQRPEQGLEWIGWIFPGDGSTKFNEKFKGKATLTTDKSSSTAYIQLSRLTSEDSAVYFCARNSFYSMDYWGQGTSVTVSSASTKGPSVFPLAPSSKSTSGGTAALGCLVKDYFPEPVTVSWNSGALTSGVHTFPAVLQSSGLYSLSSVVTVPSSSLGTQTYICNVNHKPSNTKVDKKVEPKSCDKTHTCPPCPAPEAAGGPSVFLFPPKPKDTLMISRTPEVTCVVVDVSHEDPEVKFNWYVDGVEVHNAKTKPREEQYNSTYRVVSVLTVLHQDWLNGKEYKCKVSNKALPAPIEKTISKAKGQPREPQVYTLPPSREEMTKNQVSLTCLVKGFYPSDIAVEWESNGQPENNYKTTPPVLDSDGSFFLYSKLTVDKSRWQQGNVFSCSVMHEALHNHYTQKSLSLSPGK
light: DIVMSQSPSSLAVSAGEKVTMSCKSSQSLLNSRTRKNQLAWYQQKPGQSPKLLIYWASTRESGVPDRFTGSGSGTDFTLTISSVQAEDLAVYYCKQSYNLRTFGGGTKLEIKRTVAAPSVFIFPPSDEQLKSGTASVVCLLNNFYPREAKVQWKVDNALQSGNSQESVTEQDSKDSTYSLSSTLTLSKADYEKHKVYACEVTHQGLSSPVTKSFNRGEC
notes: Variant of PR003181; Human IgG1 with LALA mutation in Fc
With B3, the binding result in assay [2] and in assay [3] was “no binding (tested: 10 nM)” throughout.
